Eight molecules from patent publication US10919943B2, “Mutant proteins enabling agrochemical control of plant gene expression” (The Regents of the University of California, priority 2016, dated 2021) can be followed below.

The target of this experiment is T1, PYR1 (Arabidopsis thaliana, UniProt O49686).
T1 construct: expressed in transfected cells; host or cells: S. cerevisiae strain Y190
T1 sequence (O49686 1-191): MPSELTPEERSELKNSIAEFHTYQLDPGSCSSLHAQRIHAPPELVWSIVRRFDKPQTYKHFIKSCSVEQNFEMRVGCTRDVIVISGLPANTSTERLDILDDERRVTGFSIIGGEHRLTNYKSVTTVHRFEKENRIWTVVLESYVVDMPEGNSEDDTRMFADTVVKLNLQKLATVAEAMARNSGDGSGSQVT
Nature of the experiment: Yeast two hybrid of pACT-HAB1 site saturation mutants with pBD-PYR1 on 10 μM ABA, β-galactosidase staining. The experiment is classed as cell-based. On the set-up: key: x: Mutations in HAB1 that disrupt HAB1 interaction with PYR1. Conditions: S. cerevisiae Y190, 10 μM ABA; dead = lack of detectable staining in comparison to wild type control. The method, boiled down:
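HAB1 (lacking three N-terminal residues) site-saturation mutants in pACT were co-transformed with pBD-PYR1 into S. cerevisiae Y190 and spotted on SD (-Leu,-Trp) with 10 μM ABA. After 2 days at 30 °C, chloroform-lysed colonies were stained for β-galactosidase; "dead" means no detectable staining versus wild-type pair.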

B1: G247T: HAB1 mutant (protein, UniProt Q9CAJ0 23-511, looked up, variant G247T)
Protein phosphatase 2C 16: SPVEITQLKNVTDAADLLSDSENQSFCNGGTECTMEDVSELEEVGEQDLLKTLSDTRSGSSNVFDEDDVLSVVEDNSAVISEGLLVVDAGSELSLSNTAMEIDNGRVLATAIIVGESSIEQVPTAEVLIAGVNQDTNTSEVVIRLPDENSNHLVKGRSVYELDCIPLWGTVSIQGNRSEMEDAFAVSPHFLKLPIKMLMGDHEGMSPSLTHLTGHFFGVYDGHGTHKVADYCRDRLHFALAEEIERIKDELCKRNTGEGRQVQWDKVFTSCFLTVDGEIEGKIGRAVVGSSDKVLEAVASETVGSTAVVALVCSSHIVVSNCGDSRAVLFRGKEAMPLSVDHKPDREDEYARIENAGGKVIQWQGARVFGVLAMSRSIGDRYLKPYVIPEPEVTFMPRSREDECLILASDGLWDVMNNQEVCEIARRRILMWHKKNGAPPLAERGKGIDPACQAAADYLSMLALQKGSKDNISIIVIDLKAQRKFKTRT
For B1, the “Mutations in HAB1 that disrupt HAB1 interaction with PYR1” value (“Mutations” below) was “x”.

B2: G247E: HAB1 mutant (protein, UniProt Q9CAJ0 23-511, looked up, variant G247E)
Protein phosphatase 2C 16: SPVEITQLKNVTDAADLLSDSENQSFCNGGTECTMEDVSELEEVGEQDLLKTLSDTRSGSSNVFDEDDVLSVVEDNSAVISEGLLVVDAGSELSLSNTAMEIDNGRVLATAIIVGESSIEQVPTAEVLIAGVNQDTNTSEVVIRLPDENSNHLVKGRSVYELDCIPLWGTVSIQGNRSEMEDAFAVSPHFLKLPIKMLMGDHEGMSPSLTHLTGHFFGVYDGHGEHKVADYCRDRLHFALAEEIERIKDELCKRNTGEGRQVQWDKVFTSCFLTVDGEIEGKIGRAVVGSSDKVLEAVASETVGSTAVVALVCSSHIVVSNCGDSRAVLFRGKEAMPLSVDHKPDREDEYARIENAGGKVIQWQGARVFGVLAMSRSIGDRYLKPYVIPEPEVTFMPRSREDECLILASDGLWDVMNNQEVCEIARRRILMWHKKNGAPPLAERGKGIDPACQAAADYLSMLALQKGSKDNISIIVIDLKAQRKFKTRT
On to B2, for which the “Mutations” value is “x”.

B3: G247Y: HAB1 mutant (protein, UniProt Q9CAJ0 23-511, looked up, variant G247Y)
Protein phosphatase 2C 16: SPVEITQLKNVTDAADLLSDSENQSFCNGGTECTMEDVSELEEVGEQDLLKTLSDTRSGSSNVFDEDDVLSVVEDNSAVISEGLLVVDAGSELSLSNTAMEIDNGRVLATAIIVGESSIEQVPTAEVLIAGVNQDTNTSEVVIRLPDENSNHLVKGRSVYELDCIPLWGTVSIQGNRSEMEDAFAVSPHFLKLPIKMLMGDHEGMSPSLTHLTGHFFGVYDGHGYHKVADYCRDRLHFALAEEIERIKDELCKRNTGEGRQVQWDKVFTSCFLTVDGEIEGKIGRAVVGSSDKVLEAVASETVGSTAVVALVCSSHIVVSNCGDSRAVLFRGKEAMPLSVDHKPDREDEYARIENAGGKVIQWQGARVFGVLAMSRSIGDRYLKPYVIPEPEVTFMPRSREDECLILASDGLWDVMNNQEVCEIARRRILMWHKKNGAPPLAERGKGIDPACQAAADYLSMLALQKGSKDNISIIVIDLKAQRKFKTRT
On to B3, for which the “Mutations” value was “x”.

B4: G247W: HAB1 mutant (protein, UniProt Q9CAJ0 23-511, looked up, variant G247W)
Protein phosphatase 2C 16: SPVEITQLKNVTDAADLLSDSENQSFCNGGTECTMEDVSELEEVGEQDLLKTLSDTRSGSSNVFDEDDVLSVVEDNSAVISEGLLVVDAGSELSLSNTAMEIDNGRVLATAIIVGESSIEQVPTAEVLIAGVNQDTNTSEVVIRLPDENSNHLVKGRSVYELDCIPLWGTVSIQGNRSEMEDAFAVSPHFLKLPIKMLMGDHEGMSPSLTHLTGHFFGVYDGHGWHKVADYCRDRLHFALAEEIERIKDELCKRNTGEGRQVQWDKVFTSCFLTVDGEIEGKIGRAVVGSSDKVLEAVASETVGSTAVVALVCSSHIVVSNCGDSRAVLFRGKEAMPLSVDHKPDREDEYARIENAGGKVIQWQGARVFGVLAMSRSIGDRYLKPYVIPEPEVTFMPRSREDECLILASDGLWDVMNNQEVCEIARRRILMWHKKNGAPPLAERGKGIDPACQAAADYLSMLALQKGSKDNISIIVIDLKAQRKFKTRT
For B4, the “Mutations” value was “x”.

B5: G247K: HAB1 mutant (protein, UniProt Q9CAJ0 23-511, looked up, variant G247K)
Protein phosphatase 2C 16: SPVEITQLKNVTDAADLLSDSENQSFCNGGTECTMEDVSELEEVGEQDLLKTLSDTRSGSSNVFDEDDVLSVVEDNSAVISEGLLVVDAGSELSLSNTAMEIDNGRVLATAIIVGESSIEQVPTAEVLIAGVNQDTNTSEVVIRLPDENSNHLVKGRSVYELDCIPLWGTVSIQGNRSEMEDAFAVSPHFLKLPIKMLMGDHEGMSPSLTHLTGHFFGVYDGHGKHKVADYCRDRLHFALAEEIERIKDELCKRNTGEGRQVQWDKVFTSCFLTVDGEIEGKIGRAVVGSSDKVLEAVASETVGSTAVVALVCSSHIVVSNCGDSRAVLFRGKEAMPLSVDHKPDREDEYARIENAGGKVIQWQGARVFGVLAMSRSIGDRYLKPYVIPEPEVTFMPRSREDECLILASDGLWDVMNNQEVCEIARRRILMWHKKNGAPPLAERGKGIDPACQAAADYLSMLALQKGSKDNISIIVIDLKAQRKFKTRT
For B5, the “Mutations” value is on record as “x”.

B6: G247F: HAB1 mutant (protein, UniProt Q9CAJ0 23-511, looked up, variant G247F)
Protein phosphatase 2C 16: SPVEITQLKNVTDAADLLSDSENQSFCNGGTECTMEDVSELEEVGEQDLLKTLSDTRSGSSNVFDEDDVLSVVEDNSAVISEGLLVVDAGSELSLSNTAMEIDNGRVLATAIIVGESSIEQVPTAEVLIAGVNQDTNTSEVVIRLPDENSNHLVKGRSVYELDCIPLWGTVSIQGNRSEMEDAFAVSPHFLKLPIKMLMGDHEGMSPSLTHLTGHFFGVYDGHGFHKVADYCRDRLHFALAEEIERIKDELCKRNTGEGRQVQWDKVFTSCFLTVDGEIEGKIGRAVVGSSDKVLEAVASETVGSTAVVALVCSSHIVVSNCGDSRAVLFRGKEAMPLSVDHKPDREDEYARIENAGGKVIQWQGARVFGVLAMSRSIGDRYLKPYVIPEPEVTFMPRSREDECLILASDGLWDVMNNQEVCEIARRRILMWHKKNGAPPLAERGKGIDPACQAAADYLSMLALQKGSKDNISIIVIDLKAQRKFKTRT
As to B6, the “Mutations” value is recorded as “x”.

B7: G247I: HAB1 mutant (protein, UniProt Q9CAJ0 23-511, looked up, variant G247I)
Protein phosphatase 2C 16: SPVEITQLKNVTDAADLLSDSENQSFCNGGTECTMEDVSELEEVGEQDLLKTLSDTRSGSSNVFDEDDVLSVVEDNSAVISEGLLVVDAGSELSLSNTAMEIDNGRVLATAIIVGESSIEQVPTAEVLIAGVNQDTNTSEVVIRLPDENSNHLVKGRSVYELDCIPLWGTVSIQGNRSEMEDAFAVSPHFLKLPIKMLMGDHEGMSPSLTHLTGHFFGVYDGHGIHKVADYCRDRLHFALAEEIERIKDELCKRNTGEGRQVQWDKVFTSCFLTVDGEIEGKIGRAVVGSSDKVLEAVASETVGSTAVVALVCSSHIVVSNCGDSRAVLFRGKEAMPLSVDHKPDREDEYARIENAGGKVIQWQGARVFGVLAMSRSIGDRYLKPYVIPEPEVTFMPRSREDECLILASDGLWDVMNNQEVCEIARRRILMWHKKNGAPPLAERGKGIDPACQAAADYLSMLALQKGSKDNISIIVIDLKAQRKFKTRT
Take B7: the “Mutations” value is “x”.

B8: G247V: HAB1 mutant (protein, UniProt Q9CAJ0 23-511, looked up, variant G247V)
Protein phosphatase 2C 16: SPVEITQLKNVTDAADLLSDSENQSFCNGGTECTMEDVSELEEVGEQDLLKTLSDTRSGSSNVFDEDDVLSVVEDNSAVISEGLLVVDAGSELSLSNTAMEIDNGRVLATAIIVGESSIEQVPTAEVLIAGVNQDTNTSEVVIRLPDENSNHLVKGRSVYELDCIPLWGTVSIQGNRSEMEDAFAVSPHFLKLPIKMLMGDHEGMSPSLTHLTGHFFGVYDGHGVHKVADYCRDRLHFALAEEIERIKDELCKRNTGEGRQVQWDKVFTSCFLTVDGEIEGKIGRAVVGSSDKVLEAVASETVGSTAVVALVCSSHIVVSNCGDSRAVLFRGKEAMPLSVDHKPDREDEYARIENAGGKVIQWQGARVFGVLAMSRSIGDRYLKPYVIPEPEVTFMPRSREDECLILASDGLWDVMNNQEVCEIARRRILMWHKKNGAPPLAERGKGIDPACQAAADYLSMLALQKGSKDNISIIVIDLKAQRKFKTRT
In the case of B8, the “Mutations” value is given as “x”.
